Values of other authors as cited in publication PMC8541618.
Where two headings read alike, the source gives them in different places.

Tests used:
[1] = target: VanRA (Enterococcus faecium) (UniProt Q06239)
[2] = target: VanRA (Enterococcus faecium) (UniProt Q06239); remark: listed apart in the source

UniProt Q06239, sequence (Q06239 whole entry): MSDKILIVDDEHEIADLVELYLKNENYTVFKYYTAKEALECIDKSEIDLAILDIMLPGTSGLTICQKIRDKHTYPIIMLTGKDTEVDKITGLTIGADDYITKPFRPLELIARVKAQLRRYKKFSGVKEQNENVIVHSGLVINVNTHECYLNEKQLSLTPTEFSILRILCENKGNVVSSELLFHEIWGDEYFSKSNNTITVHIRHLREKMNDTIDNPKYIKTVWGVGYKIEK

| Substance | Kd [1] | Kd [2] |
| --- | --- | --- |
| VanSA (from UniProt Q06240) | 1.9 µM | – |
| VanSA cytosolic portion (from UniProt Q06240) | – | 6.8 µM |
